Measured values taken from patent publication US20240010747A1, “ANTI-MRP4 (ENCODED BY ABCC4 GENE) ANTIBODIES AND USES THEREOF” (Kenjockety Biotechnology, Inc., priority 2020, published 2024).

T1: human ABCC4 (Homo sapiens, UniProt O15439)
T1 construct: expressed in transfected cells
T1 sequence (O15439 1-1325): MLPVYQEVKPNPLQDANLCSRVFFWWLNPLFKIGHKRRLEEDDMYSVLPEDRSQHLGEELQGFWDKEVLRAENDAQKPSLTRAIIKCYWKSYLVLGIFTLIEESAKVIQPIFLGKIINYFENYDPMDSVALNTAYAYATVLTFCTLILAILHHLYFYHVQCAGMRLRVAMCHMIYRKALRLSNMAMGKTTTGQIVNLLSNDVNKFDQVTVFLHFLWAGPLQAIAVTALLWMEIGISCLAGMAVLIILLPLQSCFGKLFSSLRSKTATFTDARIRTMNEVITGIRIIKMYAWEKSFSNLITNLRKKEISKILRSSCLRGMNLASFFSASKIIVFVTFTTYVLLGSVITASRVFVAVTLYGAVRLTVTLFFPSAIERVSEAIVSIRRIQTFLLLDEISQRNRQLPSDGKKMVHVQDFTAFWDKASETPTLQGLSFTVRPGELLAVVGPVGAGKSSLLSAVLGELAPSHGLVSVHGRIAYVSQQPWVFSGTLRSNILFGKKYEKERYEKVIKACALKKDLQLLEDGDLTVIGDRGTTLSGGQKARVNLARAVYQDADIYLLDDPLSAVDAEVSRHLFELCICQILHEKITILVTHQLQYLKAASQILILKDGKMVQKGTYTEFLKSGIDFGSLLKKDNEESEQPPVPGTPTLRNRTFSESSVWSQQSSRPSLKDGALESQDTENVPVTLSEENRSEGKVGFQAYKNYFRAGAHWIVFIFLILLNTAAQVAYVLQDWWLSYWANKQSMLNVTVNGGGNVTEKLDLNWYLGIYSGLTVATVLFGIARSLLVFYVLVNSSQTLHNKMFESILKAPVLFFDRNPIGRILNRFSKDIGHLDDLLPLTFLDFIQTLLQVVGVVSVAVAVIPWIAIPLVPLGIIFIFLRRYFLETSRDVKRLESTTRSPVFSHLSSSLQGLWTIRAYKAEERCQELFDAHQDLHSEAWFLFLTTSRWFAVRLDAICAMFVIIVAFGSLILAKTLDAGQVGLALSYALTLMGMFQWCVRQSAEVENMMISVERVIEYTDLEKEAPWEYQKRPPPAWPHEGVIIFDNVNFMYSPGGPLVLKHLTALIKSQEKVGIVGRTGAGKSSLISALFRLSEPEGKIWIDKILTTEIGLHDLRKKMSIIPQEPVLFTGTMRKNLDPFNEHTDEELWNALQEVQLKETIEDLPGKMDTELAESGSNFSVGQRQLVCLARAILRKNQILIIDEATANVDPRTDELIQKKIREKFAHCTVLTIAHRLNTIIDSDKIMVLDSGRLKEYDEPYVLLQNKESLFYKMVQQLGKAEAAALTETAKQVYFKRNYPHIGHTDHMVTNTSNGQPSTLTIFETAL

B1: C4.1155: anti-ABCC4 antibody raised in rats; VH SEQ ID NO: 35, VL SEQ ID NO: 154 (antibody, V domains shown)
VH: EVKLLESGGGLVQPGGSLRLSCATSGFSFTDFYMSWIRQPLGKAPEWLGVIRNRAIGFRTEYNPSVKGRFTISRDNTQNILYLQMNTLRTEDTAIYYCARNNLGFDYWGQGASVTVSS
VL: TPPSLSVAIGQSVSISCKSSQSLVYSDGKTYLHWLLQISGRSPERLIYQVSNLDSGVPDRFSGTGSQKDFTLKISRVEAKDLGFYYCAQTTHFPYTFGAGTKLELK
B2: C4.1145: anti-ABCC4 antibody raised in rats; VH SEQ ID NO: 32, VL SEQ ID NO: 151 (antibody, V domains shown)
VH: EVKLVESGGGLVQPGRSLKLSCAASGFTFSNYDMAWVRQAPTKGLEWVASIIPSGGTSYYRDSVKGRFTVSRDNAKSTLYLQMDSLRSEDTATYYCARLTTSHYYVMDAWGQGASVTVSS
VL: DIWMTQSPTSMSISVGDRVTMNCKASQNVGSNVDWYQQKTGQSPKLLIYKASNRYTGVPDRFTGSGSGTDFTFTISNMQAEDLAVYYCMQSNSYPWTFGGGTKLELK
B3: C4.1146: anti-ABCC4 antibody raised in rats; VH SEQ ID NO: 32, VL SEQ ID NO: 152 (antibody, V domains shown)
VH: B2 VH
VL: DIWMTKSPSSMSASLGDRVTITCQASQDIGNNLIWFQQKPGKSPRRMIYYATNLANGVPSRFSGSRSGSDYSLTIISLESEDMADYHCLQYKQYPYTFGAGTKLEIK
B4: C4.1138: anti-ABCC4 antibody raised in rats; VH SEQ ID NO: 29, VL SEQ ID NO: 149 (antibody, V domains shown)
VH: EVQLKESGPGLVKPSETLSLTCTVSGFSLTSYHVSWVRQPPGKGLEWMGVIWGDGNTAYNSALKSRLSINRDTSKSQVFLKMNSLQTEDTATYYCARHPYYSIPYWGQGASVTVSS
VL: DIVLTQSPTTMAAFPGEKVTITCRASSSVSYMYWYQQKSGASPKSWIYETSKLASGVPDRFSGSGSGTSYSFTISSMETEDAATYYCHQWSSIPLTFGSGTKLEIK
B5: C4.927: anti-ABCC4 antibody raised in rats; VH SEQ ID NO: 4, VL SEQ ID NO: 127 (antibody, V domains shown)
VH: EVQLVESGPGLVQPSRTLSLTCTVSGFSLTSYGVSWVRQPPGKGLEWIAAIWSGGSTDYNSALKSRLSISRDTSKSQVLLKMNSLQTEDTAMYFCARGATEGIDYWGQGASVTVSS
VL: AIQVTQSPTSLSASLGDRVTLTCRASQDINNKMAWYQQKPGEVPQLLIYYASTLQSGTPSRFSGSGSGTDFSFTISHLQSEDFATYYCLQGYSLYTFGAGTKLELK
B6: C4.961: anti-ABCC4 antibody raised in rats; VH SEQ ID NO: 9, VL SEQ ID NO: 130 (antibody, V domains shown)
VH: EVQLKESGPGLVQPSQTLSLTCAVSGFSLTNYHVHWVRQPPGKGLEWMGVMWSDGDTSYNSALKSRLSISRDTSKSQFFLKMNSLQTEDTATYYCARGGVYFDYWGQGASVTVSS
VL: DIVMTQSPSSLAVSAGETVTINCKSSQSLLYSGNQKNSLAWYQQKPGQSPKLLIYWASTRQSGVPDRFIGSGSGTDFTLTFSSVQAEDLAIYYCQHYFDTPYTFGAGTKLELK
B7: C4.1078: anti-ABCC4 antibody raised in rats; VH SEQ ID NO: 26, VL SEQ ID NO: 147 (antibody, V domains shown)
VH: EVQLVESGGGLVQPGGSLRLSCAASGFTFTDFYMSWIRQPPGKTPEWLGVIRNKAYVYTTEYNPSVKGRFTISRDNTQNILYLQMNTLRVEDTAIYYCARNWEGFASWGQGTLVTVSS
VL: DVVMTQTPPSLSVAIGQSVSISCKSSQSLVYSDGKTYLHWLLENSGRSPKRLIYRVSNLDSGVPDRFSGTGSQKDFTLKISRVEAQDLGVYYCAQTTHFPWTFGGGTKLELK

What was measured:
human ABCC4 [1] = molecular target: T1, human ABCC4; test: Flow cytometry (FACS) binding to C6 cells stably transfected to express human ABCC4 (different experiment, Table 4); settings: for Human ABCC4 binding: C6 cells stably transfected to express human ABCC4, FACS, different experiment, Table 4
Procedure: (§1) Binding titration of recombinant antibodies to ABCC4 transfectants was performed by serial dilution of antibodies from about 666 nM. Diluted antibody in flow cytometry buffer was incubated with cells on ice for 30 min. After 2 washes with flow cytometry buffer, bound antibody was detected with PE-labeled F(ab′)2 fragment goat anti-human IgG (Jackson ImmunoResearch) diluted 1:200 in flow cytometry buffer and incubated with cells for 20 min on ice. After 2 washes with flow cytometry buffer fluorescence was measured on an Attune N×T flow cytometer. Data were analyzed with GraphPad Prism 8.0 software to determine EC50's.
(§2) Human embryonic kidney HEK 293T cells and murine C6 (ATCC CCL-107) were transfected with human or cynomolgus ABCC4 cDNA with C-terminal fused FLAG tag in a pMONO-hygro vector with Lipofectamine 3000 (Invitrogen #L3000001). The cells were treated with 0.2 mg/ml and 0.5 mg/ml hygromycin respectively for about 2 weeks while cultivated in DMEM and 10% FBS with 0.2 mg/ml hygromycin and 0.5 mg/ml hygromycin, respectively. The cells were washed with PBS, and stained with […] of anti-FLAG-PE after fixing and permeablization. Clones expressing ABCC4 were single-cell sorted into 200 μl DMEM with 10% FBS using a BD Aria FACS machine and cultivated in 96 well plates using standard techniques in an incubator at 37° C. and 5% CO 2. Two weeks later clones expressing high levels of ABCC4 were screened and amplified.
(§3) Antibody binding to cells was evaluated by flow cytometry. Murine C6 cells stably transfected to express human or cynomolgus ABCC4 were washed once in flow cytometry buffer (PBS+2% FBS+0.02% sodium azide), resuspended at 2×10^6 cells/mL in flow cytometry buffer, and dispensed into 96-well microtiter plates at 0.1 mL/well. Recombinant antibodies were added to cells at 5 ug/mL for initial binding confirmation, or serially diluted from 100 ug/mL in flow cytometry buffer. After incubating cells on ice for 30 min, cells were washed twice with flow cytometry buffer. Bound antibody was detected with PE-labeled F(ab′)2 fragment goat anti-human IgG (Jackson ImmunoResearch) and evaluated on an Attune N×T flow cytometer. EC50 is calculated to be the concentration of antibody that gives half maximal response.
(§4) In a different experiment, using a different C6.cC4 cell line, detecting the binding of anti-ABCC4 antibodies to C6 cells stably transfected to express human ABCC4 measured by FACS and to C6 cells stably transfected to express cynomolgus ABCC4 measured by FACS, the results set forth in Table 4 were obtained. Negative (−)=Rmax (MFI) below background level. Positive (+)=MFI>3× background level.

cynomolgus ABCC4 [2] = test: Flow cytometry (FACS) binding to C6 cells stably transfected to express cynomolgus ABCC4 (different experiment, different C6.cC4 cell line, Table 4); set-up: key to Cynomolgus ABCC4 binding: Negative (−)=Rmax (MFI) below background level; Positive (+)=MFI>3× background level; settings: for Cynomolgus ABCC4 binding: different C6.cC4 cell line, C6 cells stably transfected to express cynomolgus ABCC4, FACS, Table 4
Procedure: as §1, §2, §3, §4

cynomolgus ABCC4 [3] = test: Flow cytometry (FACS) binding to C6 cells stably transfected to express cynomolgus ABCC4 (Table 3 study)
Procedure: as §1, §2, §3
(§5) Table 3 lists the following characteristics of the rat anti-ABCC4 antibodies tested: binding to C6 cells stably transfected to express human ABCC4 measured by FACS and binding to C6 cells stably transfected to express cynomolgus ABCC4 measured by FACS. Negative (−) is defined as maximum response (Rmax(MFI)) below background level. Positive (+) is defined as MFI>1000.

human ABCC4 [4] = molecular target: T1, human ABCC4; test: Flow cytometry (FACS) binding to C6 cells stably transfected to express human ABCC4 (Table 3 study)
Procedure: as §1, §2, §3, §5

Molecule | Human ABCC4 binding (human ABCC4 [1]) | Cynomolgus ABCC4 binding (cynomolgus ABCC4 [2]) | Cynomolgus ABCC4 binding (cynomolgus ABCC4 [3]; C6 cells stably transfected to express cynomolgus ABCC4, FACS, Table 3) | binding to cynomolgus ABCC4 expressed on cell surface (cynomolgus ABCC4 [3]; Table 3 study, stated in words) | binding to human ABCC4 expressed on cell surface (human ABCC4 [1]; Table 4 study, stated in words) | Human ABCC4 binding (human ABCC4 [4]; C6 cells stably transfected to express human ABCC4, FACS, Table 3) | binding to human ABCC4 expressed on cell surface (human ABCC4 [4]; Table 3 study, stated in words) | binding to cynomolgus ABCC4 expressed on cell surface (cynomolgus ABCC4 [2]; Table 4 study, stated in words)
B1 | + (Positive (+)=MFI>3× background level) | − |  |  |  |  |  | 
B2 | + (Positive (+)=MFI>3× background level) | − |  |  |  |  |  | 
B3 | + (Positive (+)=MFI>3× background level) | − |  |  |  |  |  | 
B4 | + (Positive (+)=MFI>3× background level) | − |  |  |  |  |  | 
B5 | + (Positive (+)=MFI>3× background level) | − |  |  |  |  |  | 
B6 | + (Positive (+)=MFI>3× background level) | + (Positive (+)=MFI>3× background level) | + (Positive (+) is defined as MFI>1000) | bind to both human and cynomolgus ABCC4 | bind to both human and cynomolgus ABCC4 | + (Positive (+) is defined as MFI>1000) | bind to both human and cynomolgus ABCC4 | bind to both human and cynomolgus ABCC4
B7 | + (Positive (+)=MFI>3× background level) | − |  |  |  |  |  | 
